Measured values as given in patent publication US20250250357A1 (NANJING ZAIMING PHARMACEUTICAL, published 2025).

How the values were obtained:
[1] = target: T1, human MSLN-R3-his protein (human, UniProt Q13421 487-598); experiment: ELISA on coated antigen, antibody 0.002 nM
T1 construct: it is put last here; also called human MSLN-R3 protein; hMSLN-R3-his; not shown: His tag
T1 sequence (Q13421 495-606): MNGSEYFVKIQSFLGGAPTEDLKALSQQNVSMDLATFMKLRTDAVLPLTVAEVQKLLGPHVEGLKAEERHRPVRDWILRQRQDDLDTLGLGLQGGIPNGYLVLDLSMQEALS

[2] = target: T2, human MSLN-R2-his protein (human, UniProt Q13421 391-486); experiment: ELISA on coated antigen, antibody 0.2 nM
T2 construct: it is put last here; also called human MSLN-R2 protein; hMSLN-R2-his; not shown: His tag
T2 sequence (Q13421 other isoform, or with tags, fused parts or gaps): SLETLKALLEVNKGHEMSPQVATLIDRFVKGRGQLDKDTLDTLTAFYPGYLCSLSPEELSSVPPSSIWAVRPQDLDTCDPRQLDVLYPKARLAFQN

[3] = target: T1, human MSLN-R3-his protein; experiment: ELISA on coated antigen, no antibody (blank, column 'none')
[4] = target: T2, human MSLN-R2-his protein; experiment: ELISA on coated antigen, antibody 200 nM
Procedure: (§1) The plate was sealed with a plastic film and incubated at 4° C. overnight. The next day, the plate was washed twice with PBST, and a blocking buffer [PBS+2% (w/w) BSA] was added for blocking at room temperature for 2 h. The blocking buffer was discarded, and a chimeric antibody or negative control antibody serially diluted from 100 nM was added at 50 μL/well. After incubation at 37° C. for 2 h, the plate was washed 3 times with PBST. […] After incubation at 37° C. for 2 h, the plate was washed 5 times with PBST. A TMB substrate was added at 50 μL/well for incubation at room temperature for 5-10 min, and then a stop solution (1.0 N HCl) was added at 50 μL/well.

[5] = target: T2, human MSLN-R2-his protein; experiment: ELISA on coated antigen, antibody 0.002 nM
Procedure: as §1

[6] = target: T2, human MSLN-R2-his protein; experiment: ELISA on coated antigen, no antibody (blank, column 'none')
Procedure: as §1

[7] = target: T1, human MSLN-R3-his protein; experiment: ELISA on coated antigen, antibody 200 nM
Procedure: as §1

[8] = target: T1, human MSLN-R3-his protein; experiment: ELISA on coated antigen, antibody 20 nM
[9] = target: T2, human MSLN-R2-his protein; experiment: ELISA on coated antigen, antibody 0.0002 nM
Procedure: as §1

[10] = target: T1, human MSLN-R3-his protein; experiment: ELISA on coated antigen, antibody 0.0002 nM
[11] = target: T1, human MSLN-R3-his protein; experiment: ELISA on coated antigen, antibody 0.2 nM
[12] = target: T2, human MSLN-R2-his protein; experiment: ELISA on coated antigen, antibody 20 nM
Procedure: as §1

[13] = target: T1, human MSLN-R3-his protein; experiment: ELISA on coated antigen, antibody 0.02 nM
Procedure: as §1

[14] = target: T2, human MSLN-R2-his protein; experiment: ELISA on coated antigen, antibody 0.02 nM
Procedure: as §1

[15] = target: T2, human MSLN-R2-his protein; experiment: ELISA on coated antigen, antibody 2 nM
Procedure: as §1

[16] = target: T1, human MSLN-R3-his protein; experiment: ELISA on coated antigen, antibody 2 nM
Procedure: as §1

[17] = target: T3, human MSLN-R2-his protein (human, UniProt Q13421 391-486); experiment: ELISA on coated MSLN-R2; no antibody (blank)
T3 construct: Region 2 of human mesothelin, made in HEK293E cells, His-tagged; also called human MSLN-R2 protein; hMSLN-R2-his; not shown: His tag
T3 sequence (Q13421 other isoform, or with tags, fused parts or gaps): as above

[18] = target: T4, human MSLN-R3-his protein (human, UniProt Q13421 487-598); experiment: ELISA on coated MSLN-R3; antibody 10 nM
T4 construct: Region 3 of human mesothelin, made in HEK293E cells, His-tagged; also called human MSLN-R3 protein; hMSLN-R3-his; not shown: His tag
T4 sequence (Q13421 495-606): as the sequence (Q13421 495-606) above

[19] = target: T5, human MSLN-R1-his protein (human, UniProt Q13421 296-390); experiment: ELISA on coated MSLN-R1; antibody 0.01 nM
T5 construct: Region 1 of human mesothelin, made in HEK293E cells, His-tagged; also called human MSLN-R1 protein; hMSLN-R1-his; not shown: His tag
T5 chain: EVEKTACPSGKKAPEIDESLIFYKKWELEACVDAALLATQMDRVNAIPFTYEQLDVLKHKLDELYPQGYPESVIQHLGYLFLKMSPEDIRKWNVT

[20] = target: T3, human MSLN-R2-his protein; experiment: ELISA on coated MSLN-R2; antibody 0.0001 nM
[21] = target: T3, human MSLN-R2-his protein; experiment: ELISA on coated MSLN-R2; antibody 1 nM
Procedure: as §1

[22] = target: T5, human MSLN-R1-his protein; experiment: ELISA on coated MSLN-R1; antibody 1 nM
Procedure: as §1

[23] = target: T3, human MSLN-R2-his protein; experiment: ELISA on coated MSLN-R2; antibody 10 nM
Procedure: as §1

[24] = target: T4, human MSLN-R3-his protein; experiment: ELISA on coated MSLN-R3; antibody 0.0001 nM
Procedure: as §1

[25] = target: T4, human MSLN-R3-his protein; experiment: ELISA on coated MSLN-R3; antibody 0.001 nM
[26] = target: T5, human MSLN-R1-his protein; experiment: ELISA on coated MSLN-R1; no antibody (blank)
Procedure: as §1

[27] = target: T5, human MSLN-R1-his protein; experiment: ELISA on coated MSLN-R1; antibody 0.0001 nM
Procedure: as §1

[28] = target: T5, human MSLN-R1-his protein; experiment: ELISA on coated MSLN-R1; antibody 0.001 nM
Procedure: as §1

[29] = target: T3, human MSLN-R2-his protein; experiment: ELISA on coated MSLN-R2; antibody 0.1 nM
Procedure: as §1

[30] = target: T4, human MSLN-R3-his protein; experiment: ELISA on coated MSLN-R3; antibody 1 nM
[31] = target: T5, human MSLN-R1-his protein; experiment: ELISA on coated MSLN-R1; antibody 0.1 nM
[32] = target: T5, human MSLN-R1-his protein; experiment: ELISA on coated MSLN-R1; antibody 10 nM
Procedure: as §1

[33] = target: T3, human MSLN-R2-his protein; experiment: ELISA on coated MSLN-R2; antibody 100 nM
Procedure: as §1

[34] = target: T4, human MSLN-R3-his protein; experiment: ELISA on coated MSLN-R3; no antibody (blank)
[35] = target: T4, human MSLN-R3-his protein; experiment: ELISA on coated MSLN-R3; antibody 100 nM
Procedure: as §1

[36] = target: T3, human MSLN-R2-his protein; experiment: ELISA on coated MSLN-R2; antibody 0.001 nM
Procedure: as §1

[37] = target: T5, human MSLN-R1-his protein; experiment: ELISA on coated MSLN-R1; antibody 100 nM
Procedure: as §1

[38] = target: T4, human MSLN-R3-his protein; experiment: ELISA on coated MSLN-R3; antibody 0.1 nM
[39] = target: T4, human MSLN-R3-his protein; experiment: ELISA on coated MSLN-R3; antibody 0.01 nM
[40] = target: T3, human MSLN-R2-his protein; experiment: ELISA on coated MSLN-R2; antibody 0.01 nM
Procedure: as §1

B1: S009-F7.2.3 (antibody, human IgG1, kappa, V domains shown)
VH: ELQLVESGGDLVKPGGSLKLSCAASGFTFSSNGMSWLRQTPDKRLEWVATISSGGRYTYYPDSVKGRFTISRDNAKNTLYLQMSSLKSEDTAMYYCARRGIYDYFDCWGQGTTLTVSS
VL: DIQMTQSPASLSISVGETVTITCRASENIHSSLAWYQQKQGKSPQLLVYAATNLADGVPSRFSGSGSGSQYSLKINSLQSEDFGTYYCQHFWGTPWTFGGGTKLDIKR
notes: Human-murine chimeric antibody, human IgG1 heavy and kappa light constant regions
B1 gave an OD450 [1] of 0.06 OD, an OD450 [2] of 2.12 OD and an OD450 [3] of 0.07 OD. It also gave an OD450 [4] of 2.74 OD, an OD450 [5] of 0.41 OD and an OD450 [6] of 0.06 OD. It also gave an OD450 [7] of 0.2 OD, an OD450 [8] of 0.1 OD and an OD450 [9] of 0.14 OD. It also gave an OD450 [10] of 0.06 OD, an OD450 [11] of 0.06 OD and an OD450 [12] of 2.38 OD. The OD450 [13] was 0.06 OD, the OD450 [14] was 1.22 OD and the OD450 [15] was 2.37 OD. The OD450 [16] was 0.07 OD.

B2: S009-F7.6.17 (antibody, human IgG1, kappa, V domains shown)
VH: QVQLQQSGAELARPGASVKMSCKASGYTFTTYTMHWVKQRPGQGLEWIGYISPTGDFTKYNQKFKDKATLTTDKSSNTAFMQLSSLTSEDSAVYYCARWNGTVWFAYWGQGTLVTVSA
VL: DIVMTQSQKFMSTSVGDRVTVTCKASQALGTNVAWYQQKPGQSPKVLIYSASYRYSGVPYRFAGGGSGTDFTLTITNVQSEDLAEYFCQQYNNYPLTFGAGTKLELKR
notes: as for B1
B2 showed an OD450 [1] of 0.56 OD, an OD450 [2] of 0.05 OD and an OD450 [3] of 0.08 OD. For the same binder, the OD450 [4] was 0.13 OD, the OD450 [5] was 0.05 OD and the OD450 [6] was 0.06 OD. It also gave an OD450 [7] of 3.1 OD, an OD450 [8] of 2.81 OD and an OD450 [9] of 0.05 OD. The OD450 [10] was 0.13 OD, the OD450 [11] was 2.64 OD and the OD450 [12] was 0.07 OD. The OD450 [13] was 1.55 OD, the OD450 [14] was 0.05 OD and the OD450 [15] was 0.05 OD. For the same binder, the OD450 [16] was 2.86 OD.

B3: S009-F7.11.11 (antibody, human IgG1, kappa, V domains shown)
VH: EVQLQQSGPELVKPGASVKIPCKASGYTITDYNMDWVKQSRGKSLEWIGDVFPYNGDSIYNQKFEGRATLTVDKYSSTAYMELRGLTSEDTAVYFCARRKTGTGYFDVWGTGTTVTVSS
VL: QLVLTQSPAIMSASPGEKVTLTCSASSSVSSTYLSWYLQKPGSSPKLWIYSTSNLASGVPARFSGSGSGTSYSLTISSMEAEDAASYFCHQWSSYPYTFGGGTKLEIKR
notes: as for B1
B3 gave an OD450 [1] of 0.09 OD, an OD450 [2] of 0.05 OD and an OD450 [3] of 0.06 OD. For the same binder, the OD450 [4] was 0.07 OD, the OD450 [5] was 0.05 OD and the OD450 [6] was 0.06 OD. The OD450 [7] was 3.12 OD, the OD450 [8] was 2.58 OD and the OD450 [9] was 0.05 OD. It also gave an OD450 [10] of 0.06 OD, an OD450 [11] of 1.37 OD and an OD450 [12] of 0.06 OD. The OD450 [13] was 0.32 OD, the OD450 [14] was 0.05 OD and the OD450 [15] was 0.05 OD. For the same binder, the OD450 [16] was 2.41 OD.

B4: S009-F8-33.12 (antibody, human IgG1, kappa, V domains shown)
VH: EVQLQQSGAELVKPGASVKLSCTASAFNIKDYYMHWVKQRTEQGLEWIGRIDPEDGETKYAPKFQGKATITADTSSNTAYLQLSSLTSEDTAVYYCASGSGTGAMDYWGQGTSVTVSS
VL: DIVMTQSQKFMSTSVGDRVSITCKASQNVRTAVGWYQQKPGQSPKALIYLASNRHTGVPDRFTGSGSGTDFTLTISNVQSEDLADYFCLQHWNSPYTFGGGTKLVIKR
B4 showed an OD450 [17] of 0.04 OD450, an OD450 [18] of 0.05 OD450 and an OD450 [19] of 0.43 OD450. The OD450 [20] was 0.04 OD450, the OD450 [21] was 0.04 OD450 and the OD450 [22] was 2.45 OD450. For the same binder, the OD450 [23] was 0.04 OD450, the OD450 [24] was 0.04 OD450 and the OD450 [25] was 0.04 OD450. For the same binder, the OD450 [26] was 0.04 OD450, the OD450 [27] was 0.05 OD450 and the OD450 [28] was 0.11 OD450. It also gave an OD450 [29] of 0.04 OD450, an OD450 [30] of 0.04 OD450 and an OD450 [31] of 1.6 OD450. The OD450 [32] was 2.66 OD450, the OD450 [33] was 0.05 OD450 and the OD450 [34] was 0.03 OD450. The OD450 [35] was 0.06 OD450, the OD450 [36] was 0.04 OD450 and the OD450 [37] was 2.64 OD450. For the same binder, the OD450 [38] was 0.03 OD450, the OD450 [39] was 0.04 OD450 and the OD450 [40] was 0.04 OD450.

B5: S009-F8-36.12 (antibody, human IgG1, kappa, V domains shown)
VH: EVQLQQSGPELVKPGASVKISCKASGYTFTDYYMNWVKQSHGKSLEWIGDINPNNGGTSYNQKFKGKATLTVDKSSSTAYMELRSLTSEDSAVYYCASWGYGSSSRGYFDYWGQGTTLTVSS
VL: QIVLSQSPAILSASPGEKVTMTCRASSSVSYMHWYQQKPGSSPKPWIYATSNLASGVPARFSGSGSGTSYSLTISRVEAEDAATYYCQQWSSNPWTFGGGTKLEIKR
For B5, the OD450 [17] was 0.04 OD450, the OD450 [18] was 0.14 OD450 and the OD450 [19] was 0.04 OD450. It also gave an OD450 [20] of 0.04 OD450, an OD450 [21] of 0.04 OD450 and an OD450 [22] of 0.04 OD450. It also gave an OD450 [23] of 0.04 OD450, an OD450 [24] of 0.04 OD450 and an OD450 [25] of 0.04 OD450. For the same binder, the OD450 [26] was 0.03 OD450, the OD450 [27] was 0.04 OD450 and the OD450 [28] was 0.04 OD450. For the same binder, the OD450 [29] was 0.03 OD450, the OD450 [30] was 0.05 OD450 and the OD450 [31] was 0.04 OD450. The OD450 [32] was 0.04 OD450, the OD450 [33] was 0.05 OD450 and the OD450 [34] was 0.04 OD450. For the same binder, the OD450 [35] was 1.19 OD450, the OD450 [36] was 0.04 OD450 and the OD450 [37] was 0.05 OD450. The OD450 [38] was 0.04 OD450, the OD450 [39] was 0.04 OD450 and the OD450 [40] was 0.04 OD450.
